# Reference: US8685401B2, “Methods of enhancing the response to radiation in tumor therapy using anti-DLL4 antibodies” (priority 2011, dated 2014)
# B1: TRAIL: recombinant TRAIL (R&D Systems), positive control for apoptosis (protein, UniProt P50591 1-281, looked up)
# Tumor necrosis factor ligand …: MAMMEVQGGPSLGQTCVLIVIFTVLLQSLCVAVTYVYFTNELKQMQDKYSKSGIACFLKEDDSYWDPNDEESMNSPCWQVKWQLRQLVRKMILRTSEETISTVQEKQQNISPLVRERGPQRVAAHITGTRGRSNTLSSPNSKNEKALGRKINSWESSRSGHSFLSNLHLRNGELVIHEKGFYYIYSQTYFRFQEEIKENTKNDKQMVQYIYKYTSYPDPILLMKSARNSCWSKDAEYGLYSIYQGGIFELKENDRIFVSVTNEHLIDMDHEASFFGAFLVG
# Tested on: LS174T cells
# Assay: Apoptosis, Caspase-Glo 3/7 assay
# Assay type: cell-based, human
# Conditions: 50 nM recombinant TRAIL, 2 hrs
molecule,measurement,value
B1,"apoptosis (caspase 3/7), positive control",large increase in apoptosis
